The subject of the series is OC[C@H]1O[C@@H](O[C@H]2[C@H](O)[C@@H](O)C(O)O[C@@H]2CO)[C@H](O)[C@@H](O)[C@H]1O. Put plainly: Steady-state kinetics, DCIP-based enzymatic activity assay. It counts as biochemical, Neurospora crassa. To be noted: other: apparent constant, 100 mM McIlvaine buffer pH 5.5, DCIP as artificial electron acceptor, 30°C. As for the experimental part:
Enzyme activity was assayed at 30°C using the DCIP (Karapetyan et al., 2005 Journal of Biotechnology 121: 34-48) as electron acceptor. Stock solutions of carbohydrates used for kinetic measurements were prepared in the respective buffer and allowed to stand overnight for mutarotation, while stock solutions of electron acceptors were prepared in water and immediately used. The reaction stoichiometry is 1 for the two-electron acceptor DCIP (1 mole of DCIP reduced per mole of carbohydrate oxidized. Kinetic constants were calculated by fitting the observed data to the Henri-Michaelis-Menten equation or to the adapted model for substrate inhibition using nonlinear least-squares regression and the program SigmaPlot (Systat Software, San Jose, CF, USA). The protein concentration was determined with the Bradford assay.
CDH from N. crassa oxidises glucose and galactose (Harreither et al., 2007), which has negative side effects on the lactose detection accuracy if glucose and galactose are present. […] The enzyme variant N722Q was heterologously produced in P. pastoris according to the explained routines and compared to the recombinant wild-type CDH from N. crassa. […] To investigate the effect of the mutation in the N. crassa variant a full characterization of steady-state constants was performed (Tables 2 and 3). Table 2: Apparent kinetic constants of wtCDH for indicated electron donors in 100 mM McIlvaine buffer at pH 5.5 using DCIP as artificial electron acceptor
Table 3: Apparent kinetic constants of N722Q N. crassa sensor for indicated electron donors in 100 mM McIlvaine buffer at pH 5.5 using DCIP as artificial electron acceptor

Consider “Neurospora crassa cellobiose dehydrogenase (CDH) variant N722Q (N722 of SEQ ID NO: 4 substituted by glutamine) (Neurospora crassa OR74A; N722Q)”, for which the Km is reported as 2.18 ± 0.28 > 10 M^b mM, the kcat came out at 77.92 s⁻¹ and the specificity constant (kcat/Km) amounted to 35740 M⁻¹ s⁻¹.

Broadly, the kcat is the number of substrate molecules converted per active site and unit of time at saturation. The term kcat/Km denotes the turnover number divided by the Michaelis constant.
